Target: T1, MBP-JAZ9-8×His (recombinant, E. coli-expressed) (Arabidopsis, UniProt Q8W4J8 1-267, limits assumed)
T1 construct: procedure cited from Katsir et al. 2008; also called Escherichia coli-expressed JAZ9 protein
T1 sequence: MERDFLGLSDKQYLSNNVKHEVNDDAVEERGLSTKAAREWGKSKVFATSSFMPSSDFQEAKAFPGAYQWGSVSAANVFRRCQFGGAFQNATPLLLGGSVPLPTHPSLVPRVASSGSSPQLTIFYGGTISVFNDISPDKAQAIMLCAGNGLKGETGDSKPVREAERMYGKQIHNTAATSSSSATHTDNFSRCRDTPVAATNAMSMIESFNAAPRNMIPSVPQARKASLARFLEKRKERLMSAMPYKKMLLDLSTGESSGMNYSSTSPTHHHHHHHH
Assay: Ni-resin pull-down of plant-expressed COI1-4×c-Myc with MBP-JAZ9-8×His, COR series, anti-c-Myc immunoblot
Experimental: Pull-down assays were performed with protein extracts from 4-mg pCOI1:COI1WT/A384V-4×c-Myc plants and 25 μg recombinant MBP-JAZ9-8×His. […] Eighty microliters of Ni resin (Invitrogen) were added, followed by an additional 15-min incubation period at 4° C. MBP-JAZ9-8×Hisbound Ni resin was washed three times on microcentrifuge spin columns with 0.25 mL binding buffer at 4° C. MBP-JAZ9-8×His was eluted from the resin with 100 μL of 300 mM imidazole. Proteins bound to MBP-JAZ9-8×His were analyzed by immunoblotting for the presence of COI1WT/A384V-4×c-Myc using anti-cMyc antibody. MBP-JAZ9-8×His recovered by the Ni affinity resin was detected by Coomassie blue staining.

B1: COI1A384V-4×c-Myc (plant-expressed) (receptor, not shown: small tags and cut ends)
chain: MEDPDIKRCKLSCVATVDDVIEQVMTYITDPKDRDSASLVCRRWFKIDSETREHVTMALCYTATPDRLSRRFPNLRSLKLKGKPRAAMFNLIPENWGGYVTPWVTEISNNLRQLKSVHFRRMIVSDLDLDRLAKARADDLETLKLDKCSGFTTDGLLSIVTHCRKIKTLLMEESSFSEKDGKWLHELAQHNTSLEVLNFYMTEFAKISPKDLETIARNCRSLVSVKVGDFEILELVGFFKAAANLEEFCGGSLNEDIGMPEKYMNLVFPRKLCRLGLSYMGPNEMPILFPFAAQIRKLDLLYALLETEDHCTLIQKCPNLEVLETRNVIGDRGLEVLAQYCKQLKRLRIERGADEQGMEDEEGLVSQRGLIALAQGCQELEYMVVYVSDITNESLESIGTYLKNLCDFRLVLLDREERITDLPLDNGVRSLLIGCKKLRRFAFYLRQGGLTDLGLSYIGQYSPNVRWMLLGYVGESDEGLMEFSRGCPNLQKLEMRGCCFSERAIAAAVTKLPSLRYLWVQGYRASMTGQDLMQMARPYWNIELIPSRRVPEVNQQGEIREMEHPAHILAYYSLAGQRTDCPTTVRVLKEPI
notes: In protein extracts of transgenic Arabidopsis (coi1-30 background); C-terminal 4×c-Myc tag; also called pCOI1:COI1A384V-4×c-Myc
  fold higher COR concentration required for robust co-receptor formation, against COI1WT-JAZ9: ~100 fold
